Measurements published in patent US20210371455A1, “METHODS AND COMPOSITIONS COMPRISING REDUCED LEVEL OF HOST CELL PROTEINS” (Regeneron Pharmaceuticals, Inc., priority 2019, published 2021).

B1: SIAE: recombinant sialate O-acetylesterase, host cell protein overexpressed and purified in CHO (protein)
chain: MVSLGSVFGLLLLLIIVRASRSAGIDFRFGSYIDNYMVLQKEPSGAVIWGFGTPGATVTVTLCQGQNTFKKKVTTVKAHSNTWVVVLDPMKPGGPYEVMAKQTFGITNVTLRIHDILFGDVWLCSGQSNMKMTVLQIFNASKELAVAAAYQSVRIFSASLVQAEEELEDLDKVDLSWSRPTAGNLGNGNYTYMSAVCWLFGRYLYDNLQYPIGLVSSSWGGTPIEAWSSKRALKSCGVPNTSNERILQTTRSECKSEGSLCPLGSFTLPPSVTGPATHSVLWNAMIHPLQKMTLKGVIWYQGESNEDLNRDLYSCMFPALIDDWRQTFHDGSQKQTERFFPFGFVQLSSYAETNTSDYRFPEIRWHQTADFGFVPNLKMPNTFMAVAMDLCDLNSPFGSIHPRDKQTVAYRLHLGARALAYGEKNLAFQGPLPKKIELLAHSRLLSLTYDQKIQVHRQDNKSFEISCCSDRLCKWLPVSVNSFSTKTLILGISACRGTVVDVRYAWTTWPCDYKQCAVYHPSNTLPAPPFTAPITYQAPRFRASDSSTQE
B2: LAL: lysosomal acid lipase encoded by the LIPA gene; recombinant, overexpressed in CHO cell (protein, UniProt P38571 77-399, looked up)
Lysosomal acid …: GPKPVVFLQHGLLADSSNWVTNLANSSLGFILADAGFDVWMGNSRGNTWSRKHKTLSVSQDEFWAFSYDEMAKYDLPASINFILNKTGQEQVYYVGHSQGTTIGFIAFSQIPELAKRIKMFFALGPVASVAFCTSPMAKLGRLPDHLIKDLFGDKEFLPQSAFLKWLGTHVCTHVILKELCGNLCFLLCGFNERNLNMSRVDVYTTHSPAGTSVQNMLHWSQAVKFQKFQAFDWGSSAKNYFHYNQSYPPTYNVKDMLVPTAVWSGGHDWLADVYDVNILLTQITNLVFHESIPEWEHLDFIWGLDAPWRLYNKIINLMRKYQ

Key:
Format in all cases: biochemical
[1] = PS20 degradation by recombinant SIAE (2D-LC-CAD)
Method: Two-Dimensional Liquid Chromatography-Charged Aerosol detector (CAD)/Mass Spectrometry (MS) Assay to Detect Polysorbate Degradation. Degradation of PS20 and PS80 in CHO cell-free media or formulated antibody were analyzed by two-dimensional HPLC-CAD/MS system. The details of the setup were previously described by Genentech (Yi Li et al., Characterization and Stability Study of Polysorbate 20 in Therapeutic Monoclonal Antibody Formulation by Multidimensional Ultrahigh-Performance Liquid Chromatography-Charged Aerosol Detection-Mass Spectrometry, 86 ANALYTICAL CHEMISTRY 5150-5157 (2014)). […]
The 2D-LC system was set up with Thermo UltiMate 3000 and coupled with Corona Ultra CAD detector. Operating at nitrogen pressure of 75 psi for quantitation. […]
(§1) Peak area of each ester was obtained from the CAD detector and added up to account for intact PS20 or PS80. The remaining percentage of PS20 or PS80 used in this work was calculated by comparing sum of the peak area of monoester eluting between 27.5 min and 33 min at each time point to sum of peak areas at time zero. Relative percent of different order ester or total esters can be calculated similarly.
Hydrolysis of Polysorbate 20 with Sialate O-acetylesterase (SIAE) and Formulated Antibody. […] The influence of pH on the rate of PS20 degradation was determined by evaluating activity at 5.3, 6.0 and 8.0 in acetate, histidine and citrate buffer system.

[2] = PS80 degradation by spiked-in recombinant SIAE (2D-LC-CAD); settings: 0.1% PS80, SIAE 50 ppm, 5 days at 45° C.
Method: Two-Dimensional Liquid Chromatography-Charged Aerosol detector (CAD)/Mass Spectrometry (MS) Assay to Detect Polysorbate Degradation. Degradation of PS20 and PS80 in CHO cell-free media or formulated antibody were analyzed by two-dimensional HPLC-CAD/MS system. The details of the setup were previously described by Genentech (Yi Li et al., Characterization and Stability Study of Polysorbate 20 in Therapeutic Monoclonal Antibody Formulation by Multidimensional Ultrahigh-Performance Liquid Chromatography-Charged Aerosol Detection-Mass Spectrometry, 86 ANALYTICAL CHEMISTRY 5150-5157 (2014)). Polysorbates were separated from formulated mAb by using Oasis MAX column (20 mm×2.1 mm, 30 μm, Waters, Milford, Mass., U.S.A.). Initial condition was set at 1% solvent B (0.1% formic acid in acetonitrile) and held for 1 min. It was increased to 20% in 1.5 minutes and dropped back down to 1% in 1.5 minutes. […]
as §1

[3] = PS20 incubated with LAL and SIAE (CAD profile); settings: 0.2% PS20 with 10 ppm LAL and 10 ppm SIAE together, after 5 days
Method: To examine the effect of both SIAE and LAL on PS20, 10 ppm of LAL and 10 ppm of SIAE were incubated with a solution comprising 0.2% PS20. Polysorbate in formulated mAbs were detected and identified as shown in Example 1.

PS80 degradation by LAL = settings: LAL 10 ppm and 20 ppm, 5 days at 45° C.
Text: LAL has an ability to hydrolyze primary and higher order esters.

Molecule | PS20 degradation ([1]; 0.1% PS20, SIAE 2.5 ppm, 45° C., 10 mM Histidine pH 6, 10-day incubation) | pH effect on PS20 degradation by SIAE ([1]; SIAE directly incubated with PS20 in buffers pH 8.0, 6.0, 5.3) | PS80 degradation [2] | PS20 ester species degradation [3] | PS80 degradation (PS80 degradation by LAL)
B1 | Significant PS20 degradation | maximum degradation at pH 6.0 | did not show any degradation | all ester species degraded | 
B2 |  |  |  | all ester species degraded | significant degradation of monoesters only
